From patent publication US20160185856A1 (INSERM INSTITUT NATIONAL DE LA SANTE ET DE LA RECHERCHE …, published 2016)

How the values were obtained:
[1] = biological target: T1, CLDN8 (human, UniProt P56748 1-225); experiment: FACS on SW480 cells transiently transfected with human CLDN8
T1 construct: whole, on cells; also called human CLDN8
T1 sequence (looked up): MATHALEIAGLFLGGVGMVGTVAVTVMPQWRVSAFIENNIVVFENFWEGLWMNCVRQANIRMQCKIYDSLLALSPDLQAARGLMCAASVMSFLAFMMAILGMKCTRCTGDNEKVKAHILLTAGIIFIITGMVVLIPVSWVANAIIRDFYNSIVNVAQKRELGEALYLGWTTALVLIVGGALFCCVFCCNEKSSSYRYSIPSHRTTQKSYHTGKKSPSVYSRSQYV
Procedure: (§1) A). Cell lysates derived from SW480 or CLDN-transfected SW480 were tested by Western-Blotting. B) FACS histograms of the binding 6F6C3 mAb (10 μg/mL-gray histogram) or control without 6F6C3 (dashed histogram) or irrelevant antibody 35A7 (black histogram) to the different CLDNs.
(§2) After transitory tranfection on SW480 cells of human cDNA clone of CLDN8 (sc320974, Origene technologies, USA) and murine cDNA clone of CLDN1 (IRAVp968A105D, LifeScience), we analysed by FACs cross-reactivity of 6F6C3 mAb.

[2] = biological target: T2, murine CLDN1 (murine, UniProt O88551 1-211); experiment: FACS on SW480 cells transiently transfected with murine CLDN1
T2 construct: whole, on cells; also called mCLDN1
T2 sequence (looked up): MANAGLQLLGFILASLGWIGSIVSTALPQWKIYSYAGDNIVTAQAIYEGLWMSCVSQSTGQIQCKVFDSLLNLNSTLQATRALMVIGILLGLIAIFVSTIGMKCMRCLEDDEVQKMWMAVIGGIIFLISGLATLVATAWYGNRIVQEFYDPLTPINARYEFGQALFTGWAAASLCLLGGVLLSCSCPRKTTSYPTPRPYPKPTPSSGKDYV
Procedure: as §1, §2

[3] = biological target: T3, CLDN7 (UniProt O95471 1-211, limits assumed); experiment: FACS on parental SW480 cells, which express CLDN7
T3 construct: whole, on cells; It is endogenous in the human SW480 cell line
T3 sequence (looked up): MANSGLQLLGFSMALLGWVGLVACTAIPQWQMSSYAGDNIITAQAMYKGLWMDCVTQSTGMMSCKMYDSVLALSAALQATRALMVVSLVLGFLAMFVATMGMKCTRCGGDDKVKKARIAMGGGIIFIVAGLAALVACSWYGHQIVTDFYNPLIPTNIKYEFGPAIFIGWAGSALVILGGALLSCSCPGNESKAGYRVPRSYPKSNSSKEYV
Procedure: as §1, §2

binding result [1]: no binding (tested: 10 µg/mL)
binding result [2]: no binding (tested: 10 µg/mL)
binding result [3]: no binding (tested: 10 µg/mL)
B1: 6F6C3 mAb (antibody, V domains shown)
VH: QIQLVQSGPELKKPGETVRISCKASGYTFTTSGMQWLQKMPGKGLKWIGWINTHFGEPKYAEDFKGRFAFSLETSASTAYLQISNLKNEDTATYFCAGAGYYGSRYFDVWGAGTTVTVSS
VL: DIVMTQSQKFMSTSVGDRVSITCKASQNVGTAVAWYQQKPGQSPKLLIYSASNRYTGVPDRFTGSGSGTDFTLTISNMQSEDLADYFCQQYSSYPLTFGGGTKLEIK
notes: Murine hybridoma antibody; Used as purified mAb or as hybridoma supernatant; also called mAb6F6C3; murine anti-CLDN1 antibody (6F6C3)
